These are literature values, as cited in paper PMC8431939.

For the series, the target named is CD112 (Homo sapiens) (UniProt Q92692). Briefly: SPR. A general note: In SPR one partner is held on a chip, and binding of the other changes the refractive index at the surface.
UniProt Q92692, sequence (Q92692 32-538): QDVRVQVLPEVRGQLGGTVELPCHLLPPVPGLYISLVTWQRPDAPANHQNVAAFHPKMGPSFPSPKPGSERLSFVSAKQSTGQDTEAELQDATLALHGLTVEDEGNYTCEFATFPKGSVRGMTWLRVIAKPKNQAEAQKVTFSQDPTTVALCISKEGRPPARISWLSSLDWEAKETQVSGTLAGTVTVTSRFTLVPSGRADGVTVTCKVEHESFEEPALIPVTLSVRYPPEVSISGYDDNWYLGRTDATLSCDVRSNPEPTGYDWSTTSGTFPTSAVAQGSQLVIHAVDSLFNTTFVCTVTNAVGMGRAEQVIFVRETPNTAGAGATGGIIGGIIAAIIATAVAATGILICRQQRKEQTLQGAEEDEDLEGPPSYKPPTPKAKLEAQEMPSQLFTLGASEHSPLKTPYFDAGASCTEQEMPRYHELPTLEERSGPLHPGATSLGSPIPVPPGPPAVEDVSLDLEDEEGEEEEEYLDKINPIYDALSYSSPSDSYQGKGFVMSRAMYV

Regarding CD112R (from UniProt Q6DKI7), the Kd – broadly, a measure of binding affinity in units of concentration – is 88 nM.
